The text below walks through data of article PMC3254782.

Where two headings read alike, the source gives them in different places.

In general, stoichiometry N refers to a count of units in the complex or per binding partner.

Common to all, as to assay: immunoprecipitation and Western blot
On the technique in general: A western blot detects proteins with antibodies after separation by electrophoresis.

Experiment [1] has as its target amyloid-β (Aβ) in brain tissue of Tg2576 mice (human).
In experiment [2] the target is amyloid-β (Aβ) secreted by mature Tg2576 primary cortical neurons (human).
The target is the same in experiment [3]. The source holds these as a separate data set.
Experiment [4] addresses amyloid-β (Aβ) secreted by 7PA2 cells.

For the substance “amyloid-β (Aβ) in brain tissue of Tg2576 mice (peptide)”, the stoichiometry N in experiment [1] worked out at 2. Consider “amyloid-β (Aβ) secreted by mature Tg2576 primary cortical neurons (peptide)”, for which the stoichiometry N in experiment [2] amounted to 3; in experiment [3] it was 2. In turn, “amyloid-β (Aβ) secreted by 7PA2 cells (peptide)” registered a stoichiometry N in experiment [4] of 2.
